Series [1] addresses T1, MBNL1 recombinant (UniProt Q9NR56 1-388).
T1 sequence: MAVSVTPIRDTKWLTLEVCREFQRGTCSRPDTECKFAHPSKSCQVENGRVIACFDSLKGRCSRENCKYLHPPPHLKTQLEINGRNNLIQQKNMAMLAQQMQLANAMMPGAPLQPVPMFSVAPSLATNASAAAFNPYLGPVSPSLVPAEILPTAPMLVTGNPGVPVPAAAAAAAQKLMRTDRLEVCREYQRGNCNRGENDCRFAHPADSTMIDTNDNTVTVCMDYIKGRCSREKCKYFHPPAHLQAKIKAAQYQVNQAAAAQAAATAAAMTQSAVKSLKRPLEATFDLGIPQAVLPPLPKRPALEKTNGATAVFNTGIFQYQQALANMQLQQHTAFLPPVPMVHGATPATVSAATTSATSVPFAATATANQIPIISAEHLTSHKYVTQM
The series can be described thus: EMSA; EMSA: REMSA Binding Buffer (Beyotime), 4 °C, 10 min; 6% TBE PAGE in ice box; salt and pH not given. Conditions: protein: commercial; label: biotin. A general note: In EMSA bound probe runs differently from free probe, usually more slowly.

Series [2] concerns the target T1, MBNL1 recombinant. The series can be described thus: competition; excess unlabelled vs biotin-labelled tRF-1-Ser; EMSA; EMSA: REMSA Binding Buffer (Beyotime), 4 °C, 10 min; 6% TBE PAGE in ice box; salt and pH not given. Conditions: protein: commercial.

With GAAGCGGGCAACCUUAUUUU (ssRNA) [tRF-1-Ser-UGCU-mut], in the series with MBNL1 recombinant [1], the binding result is listed as “no binding”.
Same read-out and setting: the same measure for GAAGCGGGUGCUCUUAUUUU (ssRNA) [tRF-1-Ser]: “binds”.
Take GAAGCGGGUGCUCUUAUUUU (ssRNA) [tRF-1-Ser unlabelled (mimic)]: the binding result with MBNL1 recombinant [2] is “binds”.

Values taken from publication PMC11082093, “A 3′‐pre‐tRNA‐derived small RNA tRF‐1‐Ser regulated by 25(OH)D promotes proliferation and stemness by inhibiting the function of MBNL1 in breast cancer”.
